Reference: a protein production outcome set (Wang et al. 2014)

Experiment: label from the status in PepcDB records
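Further: failed if final PepcDB status was selected cloned or expressed and not failed if soluble or beyond.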

MRNKLLFLALPLLFGLQASAQHTQAFQDTTLTDEQRVEHLLSILTLDEKINLLSTDLGVPRLNIPRCGHYEGLHGLTLGGPAMWGGRQRTEDGKVVPTDCPTTIFPQSYGLGSTWDTDLVQKVAEQAAEEARYYMQTTGNKRHALVMRAPNADLARDPRWGRTEESFGEDAFLTAQLTIASVRGLQGNHPRYWKTASLMKHFLANSNEDGRDSTSSDFDTRLFHEYYAYPFYKGITEGGSRAFMAAYNSWNGIPMSIHPCLEEITRKQWGNNGIICTDGGALKLLIEAHKSFPSFAEGAAAVVKATTGQFLDAYVPYVKEALEKGLLTEVDIDKAIRGNIFVALKLGLLDGDNSRNPYLSIGKNSTETPPFMTAEARRLAREVTAKSVVLLKNKKLLPLDAGKLRKIAVIGPYSDKIVQDWYSGTPPYETTILSGIRNAVKEGTEIIHAEDNRMGQAEKAAAAADVAIVCVGNHPYGTRADWKFSPVPSDGREAVDRKSLMLPDEDLVKLVLKANPNTILVLVSSFPYTINWSQEHVPAIVHITHCSQEQGNGLADVLFGKVNPAGRTVQTWVKDITDLPDIMDYDIRNGRTYMYHQGPVLYPFGYGLSYSDFTYEKIESVKQDKKNIRVTVSVKNTSGRDGEEVVQLYASYPDSKVERPSKQLRAFRRIPIKAGETRKVTLTVPKEELGYWNEGKQMFVVEPGTVKLLIGASSEDIRLEGKIRL
protein production: failed

PDMDPRCPARADPRKLHDAIARFGVNHLFGSPALLRVLAEYGKPLPTLRCVTSAGAPVPPYVVAQIRALLSDEAQFLTPYGATECLPIAVIESRE
protein production: failed

MQKGNIRIAIDKGGTFTDCVGNIGTGKQEHDTVIKLLSVDPKNYPDAPLEGIRRLLEVLEHKTIPRGIPLDISNVRSLRMGTTLATNCALERNGERCAFITTKGFKDSLLIGDQTRPDIFNLNIKKVVPLYDTVVEIDERVTLEDFSEDPYFTKSSPNEQEGILEGNSGEMVRVIKKPDESSVRSILKVLYASGIKSIAIAFLHSYTFPDHERIVGNIAREIGFSHVSLSSEVSPMIKFLPRAHSSVADAYLTPVIKKYLNSISAGLSHAEDTHIQFMQSDGGLVDGGKFSGLKSILSGPAGGVIGYSSTCYDKNNNIPLIGFDMGGTSTDVSRYGDGRLEHVFETVTAGIIIQSPQLDIHTVAAGGSSILSWKNGLFRVGPDSAAADPGPAAYRKGGPLTITDANLFLGRLVPEFFPKIFGPNEDESLDLETTTLKFRELTDVINKDLNSNLTMEEVAYGFIKVANECMARPVRAITEAKGHVVSQHRLVSFGGAGGQHAIAVADSLGIDTVLIHRYSSILSAYGIFLADVIEENQEPCSFILGEPETILKVKKRFLELSKNSIKNLLSQSFSREDIVLERYLNLRYEGTETSLMILQKYDDQWNFREWFSEAHKKEFGFSFDDKRIIIDDIRIRAIGKSGVRKEKTVDEQLIEISHFKKADVSKDASFTQKAYFDNKWVDTAVFKIDDLPAGTIIEGPAILADGTQTNIILPNSQATILNSHIFIKINQKAAKTLSKSGYELDIDPILLSIFSHRFMDIALQMGTQLRKTSVSTNVKERLDFSCALFDSKGNLVANAPHVPVHLGSMSTCISAQAKLWEGKLKPGDVLITNHPDIGGTHLPDITVITPSFSSTGELIFYVASRAHHADIGGILPGSVPPNSKELYEEGTAIYSELVVKEGIFQEELIYKLFVEDPGKYPGCSGSRRFSDNISDLKAQVAANTKGIQLIGSLTKEYDLATILKYMAAIQTNASESIKKMLAKMVEHFGTTKFSGEDRLDDGSLIKLQVIIRPEKEEYIFNFDGTSPQVYGNLNAPEAITNSAILYCLRCLVGEDIPLNQGCLKPLTIKIPAGSLLSPRSGAAVVGGNVLTSQRVTDVILKTFNVMADSQGDCNNFTFGTGGNSGNKTDKQIKGFGYYETICGGSGAGADSWRGSGWNGSDAVHTNMTNTRMTDTEVFERRYPVLLKEFSIRRGSGGKGKYTGGNGVVRDVQFRKAVTASILSERRVIGPHGIKGGQDGSRGENLWVRHSTGALINVGGKNTIYAQPGDRFIIKTPGGGGFGQYKD
protein production: failed

MSLSSLLIIFSSSFMALFPVINPLGNGFVVNGFFADLDPSQRKTAIQKLTINFIMIGVGTLLIGHLFLLIFGLAIPVIQLGGGILICKTAIELLGDSNSSDKEGTSQNVDSFKWKSIEQKIFYPITFPISIGPGSISVIFTLMASASVKGKLLHTGINYLVIALVIICMAGILYVFLSQGQRIIQKLGPVGNQIINKLVAFFTFCIGIQISVTGISQIFHLNIL
protein production: failed

MSKHLCFTAFSSIALFLLCFSSWASAVAPAEINEARLVAQYNYSINILAMLLVGFGFLMVFVRRYGFSATTGTYLVVATGLPLYILLRANGIFGHALTPHSVDAVIYAEFAVATGLIAMGAVLGRLRVFQYALLALFIVPVYLLNEWLVLDNASGLTEGFQDSAGSIAIHAFGAYFGLGVSIALTTAAQRAQPIESDATSDRFSMLGSMVLWLFWPSFATAIVPFEQMPQTIVNTLLALCGATLATYFLSALFHKGKASIVDMANAALAGGVAIGSVCNIVGPVGAFVIGLLGGAISVVGFVFIQPMLESKAKTIDTCGVHNLHGLPGLLGGFSAILIVPGIAVAQLTGIGITLALALIGGVIAGALIKLTGTTKQAYEDSHEFIHLAGPEDEHKAERLVLEAKTEIQGLKNRIDAAVLSAKSEG
protein production: not failed

MSVTFSYLAETDYPVFTLGGSTADAARRLAASGCACAPVLDGERYLGMVHLSRLLEGRKGWPTVKEKLGEELLETVRSYRPGEQLFDNLISVAAAKCSVVPLADEDGRYEGVVSRKRILGFLAERIHSGEGGLTMEIEVPPTGAKLSEIIETIEKNDASILSFTSWTTGEGRIIFFRVATHDFFRLVRNMENYGYLIRYHSAFPNAGYDELREKALEFIHYMDM
protein production: not failed

MESNLTYTEALLKLEEIVEQIEDDSIMLDTLTEKVMQANELIKYCETKLRTIEGDVRDVLQ
protein production: failed

SQKSLKRGQELNNQYETKAKRLKIDPCLVVDSPFNHGFTAQEILKGAKNNGEISFLIRFWHLDQPQVVPSGIAYVEIPQMVLKFYENHCNFHDYLNNYIS
protein production: failed

MFTQRKKWLSGVAAGLLMAASVSASAEEKILHIYNWSDYIAPDTLANFQKETGIKVVYDVFDSNEVLEGKLMAGSTGFDLVVPSASFLERQLSAGVFKPLDKSKLPNEKNLDPELLALVSKHDPDNKYAIPYLWATTGIGYNVEKVKAVLGEDAPVNSWDLVLKPENLEKLKSCGVSFLDAPSEIFATVLNYLGKDPNSTLTADYTGSATDLLLKLRPNIRYFHSSQYINDLANGDICVAVGWAGDIMQASNRAKEAKNGVNVAYSIPKEGALAFFDVFAMPTDAKNQDEAYQFLNYLMRPDVIANISNHVFYANANQAATPLVNAEVRDNPGIYPPADVRAKMFTLKVQDPKIDRVITRAWTKVKSGK
protein production: failed

MLGSIFTASAVVMILLGLGMLTVFTQRLVDQKIDIASSEIDRARVIVEEQITASGASTSVQARVNSARAALSSLGTSGGTETNAAYDPVVLVNNDDLVVSPEGYQIPERLRYFVSENQVSYQFSSIDQGDGSSYQALIIGTPTESDIPNLQVYLVFSMESDESSLALMRGLLSAALLIVVVLLVGIAWLATQQVTAPVRSASRIAERFAQGKLRERMVVEGEDEMARLAVSFNAMAESLSAQITKLEEYGNLQRQFTSDVSHELRTPLTTVRMAADLIADSEDELSPGARRASQLMNRELDRFESLLSDLLEISRHDAGVAELSTALHDVRIPVRSALEQVQHLATELDVELLVNLPEEAINIQGDSRRIERIIRNLLANAIDHSKGLPVELKVADNVDAVAIVVIDHGVGLKPGQDELVFNRFWRADPSRVRHSGGTGLGLAISREDAMLHGGNLDAAGTIGVGSIFRLVLPKEPHGNYREAPIPLIAPETPWEGEQQ
protein production: failed

MIIESRIEKGKPVVGMETTVFVHGLPRKEAIELFRRAKEISREKGFQLAVIGILKGKIVAGMSEEELEAMMREGADKVGTREIPIVVAEGKNAATTVSATIFLSRRIGIEVVVTGGTGGVHPGRVDVSQDLTEMSSSRAVLVSSGIKSILDVEATFEMLETLEIPLVGFRTNEFPLFFSRKSGRRVPRIENVEEVLKIYESMKEMELEKTLMVLNPVPEEYEIPHDEIERLLEKIELEVEGKEVTPFLLKKLVEMTNGRTLKANLALLEENVKLAGEIAVKLKRS
protein production: not failed

MRMRYQGRLSDWNDHKGFGFVTPHGGGDRAFVHISAFAQQTRRPRDGEIITYAIERDAHKRLNATQVRWADRTTAARTEQRRSGLPRKTLAAVSMLALAAATLMHVLPVIVPLWYAAASLVTLLIYAMDKSAAQRNQWRTPESSLHLLALIGGWPGALLAQEIHRHKCSKAAFQLTFWLTVALNVSALVLAVTETDLMATLPAVFD
protein production: failed

MNQVVEFLKIFIPLFIVIDPFGSLVLFTSMTYNFNESEKLRATKDAVFYGGIILVLFALAGEYIIYFFGISIEALEMAGGIILLLMAVEMIMEGNRPKSSGSEIVDYDIGIVPFATPMLAGPGAISLVIILMKGPIIAKIYTIISIAIIFAMVYIFFKWSSVVSKFIGAKVMKAISRIFGLLLAGFAIQYFIDAIVALSLLK
protein production: failed

MNKHLKIQIMNIHSEREIYSARVLNAPIEIVYEAFANPSYLKNWWGPKGFTNTIHAFDLQPGGKWILTMHGPEKGNYENSSIFKIVEPQKLISWERKSKPLFDMEVEFKKLNNLQTEISFRMTFSTKEDCDKIRSFVEPQNEELRSIRKRNSEHKLIPTCIPRHPHWLVFQSRQ
protein production: failed

MFRSKRYQMVAYAITGSALWGLSGTVSSILFSRYGMPFSTLVTIRMVFSGLILLAAGRGFVGKKDLPMFLVFAIPGLFGVQILYLATISFSNAPVATLLQFLFFPMVAVYDYITIRSLTVSSLILALIFSVAGIYELTTGFPLGGTALRISLTALILGLATAATAALYTVTSARIVKEYGGLRTVASGMMVGGLVSLPLGSFSGVPYFHGLGQADVIPVLALTIFVIVFGTSMAFYLYINSMRYISPVEAAVSGTFEPVAAAMSSYLLLGIKLSAMQYLGGALIVISILVIVISKNRRG
protein production: failed

MDALVSTKANSIAYQRSTVIIPAYNEEKRLMPVLYELCEYIRSNSLEWKVMVSIDGDDGTESNVKIMMQEYSFLSYSKGKGRGGKGAAIKRAITSATGEFVILMDADGSVPLKEIVKALDLTNYYDLIIFDRYSNRGNRIPFIRRFPSRGFNKLVRIFLGLKINDTQCGYKIIKREYAQRAFNKITISNAFFDVALLYYLKKERAKYIEIPVEYNYDRNSKFHVVELVLGEGISLIAFRIRNSRFYKYVPEKLISLYYRKFRWILEHHHHHH
protein production: not failed

NGADVQVSNIDYRLSRKELQQLLQEAFARHGKVKSVELSPHTDYQLKAVVQMENLQDAIGAVNSLHRYKIGSKKILVSLATGA
protein production: not failed

MDVGESNERVKDDSALQASPRSPLSSIDLAIDGAMNASIEQLYHNVCEMESSDDQSPSRASFISYGAESRIDLELRHLVGDVGEEGESKKEIILEKKEESNGEGSLSQKKPLSNGKKVAKTSPNNPKMPGSRISSRKSPDLGKVSVDEESPELGVVLLKQARELVSSGENLNKALDLALRAVKVFEKCGEGEKQLGLNLVMSLHILAAIYAGLGRYNDAVPVLERSIEIPMIEDGEDHALAKFAGCMQLGDMYGLMGQVENSIMLYTAGLEIQRQVLGESDARVGETCRYLAEAHVQAMQFEEASRLCQMALDIHKENGAAATASIEEAADRKLMGLICDAKGDYEVALEHYVLASMAMSSQNHREDVAAVDCSIGDAYMSLARFDEAIFAYQKALAVFKQGKGETHSSVALVYVRLADLYNKIGKTRDSKSYCENALKIYLKPTPGTPMEEVATGFIEISAIYQSMNELDQALKLLRRALKIYANAPGQQNTIAGIEAQMGVVTYMMGNYSESYDIFKSAISKFRNSGEKKTALFGIALNQMGLACVQRYAINEAADLFEEAKTILEKECGPYHPDTLAVYSNLAGTYDAMGRLDDAIEILEYVVGTREEKLGTANPEVEDEKQRLAALLKEAGRGRSKRNRALLTLLDNNPEIANGQRPVY
protein production: failed
